According to publication PMC10704376, “tRNA m^1G9 modification depends on substrate-specific RNA conformational changes induced by the methyltransferase Trm10” (The Journal of Biological Chemistry, 2023):
Where a name gives a salt, the structure may show the parent alone.

Legend:
[1] = tested on: Trm10 (wild type) (Saccharomyces cerevisiae); test: fluorescence anisotropy; details: unmodified transcript, FA: 15 nM labeled tRNA, 50-300 nM enzyme, 30 min at room temperature, buffer as in ref 17 (not given), EMSA: 4 uM tRNA, 0-10 uM protein, 30 C 30 min
[2] = tested on: Trm10-KRR (Saccharomyces cerevisiae); test: fluorescence anisotropy; details: unmodified transcript, FA: 15 nM labeled tRNA, 50-300 nM enzyme, 30 min at room temperature, buffer as in ref 17 (not given), EMSA: 4 uM tRNA, 0-10 uM protein, 30 C 30 min
Trm10 = molecular target: T1, Trm10 (Saccharomyces cerevisiae, UniProt Q12400); test: electrospray mass spectrometry of RNase T1 fragments (+[…] Da adduct); type: biochemical; details: cosubstrate with tRNA-Gly-GCC; 1 h, 37 °C; covalent to tRNA G9, not to the enzyme
T1 construct: full-length, N-terminal 6xHis tag, plasmid pJEJ12-3, expressed in E. coli BL21(DE3) pLysS; monomer (printed PDB 4JWJ covers the C-terminal domain only)
T1 sequence (Q12400 1-293): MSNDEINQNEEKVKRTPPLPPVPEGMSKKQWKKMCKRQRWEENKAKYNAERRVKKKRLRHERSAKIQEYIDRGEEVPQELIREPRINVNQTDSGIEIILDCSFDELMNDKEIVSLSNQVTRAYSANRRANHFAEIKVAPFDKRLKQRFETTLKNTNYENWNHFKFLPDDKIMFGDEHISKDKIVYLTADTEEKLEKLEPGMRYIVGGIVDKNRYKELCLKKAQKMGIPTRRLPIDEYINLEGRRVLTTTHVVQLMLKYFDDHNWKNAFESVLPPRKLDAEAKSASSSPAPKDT

Molecule | Kd [1] [nM] | Kd ([1]; separate data set, differs from Fig 4C) [nM] | Kd [2] [nM] | electrospray mass spectrometry of RNase T1 fragments (+393 Da adduct) (Trm10)
tRNAVal-UAC, FA transcript | 96 | – | – | –
tRNAGly-GCC, 5'-fluorescein transcript | 20 | 100 | 34 | –
tRNALeu-CAA, FA transcript | 38 | – | – | –
Nc1ncnc2c1ncn2[C@@H]1O[C@H](CN(CCI)CC[C@H](N)C(=O)O)[C@@H](O)[C@H]1O [NM6, 5′-(diaminobutyric acid)-N-iodoethyl-5′-deoxyadenosine ammoniumhydrochloride] | – | – | – | NM6 was confirmed to be a suitable cosubstrate for tRNA modification by Trm10 using mass spectrometry
